Measured values from PMC9213739, “Substrates and Loaded Iron Ions Relative Position Influence the Catalytic Characteristics of the Metalloenzymes Angelica archangelica Flavone Synthase I and Camellia sinensis Flavonol Synthase” (Frontiers in Pharmacology, 2022).

Test system: T1, COc1ccc([C@@H]2CC(=O)c3c(O)cc(O)cc3O2)cc1O
T1 construct: synthetic gene in pET-28a(+) (NcoI/XhoI), expressed in E. coli BL21(DE3); 365 residues
Assay: UPLC-MS product formation, Lineweaver-Burk
Assay type: biochemical, Angelica archangelica
Details: diosmetin formation (main product), Tris-HCl pH 7.5, 23 °C, 1 h, 5 mM 2-mercaptoethanol, 1 mM NADPH, 'separated protein', purification not described
Source text: UPLC-MS product formation, Lineweaver-Burk on […]

Sequence of AnFNS I (Angelica archangelica) (chain, as listed by the source): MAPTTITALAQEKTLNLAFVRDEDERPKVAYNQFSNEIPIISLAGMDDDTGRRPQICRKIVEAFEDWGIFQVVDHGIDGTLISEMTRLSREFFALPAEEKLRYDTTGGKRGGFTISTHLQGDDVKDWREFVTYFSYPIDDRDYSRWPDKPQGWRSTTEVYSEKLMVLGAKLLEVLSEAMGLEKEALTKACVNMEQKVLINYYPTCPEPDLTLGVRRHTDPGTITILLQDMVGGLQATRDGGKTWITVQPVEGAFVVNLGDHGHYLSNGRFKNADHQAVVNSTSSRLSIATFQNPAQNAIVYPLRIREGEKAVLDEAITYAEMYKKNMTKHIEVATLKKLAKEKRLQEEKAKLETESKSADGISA

Q: Which Km does the source give for AnFNS I (Angelica archangelica) here?
A: The Km was 59.04 µM.

Q: What about the Vmax of the same substance?
A: Its Vmax is 0.0366 µmol/min/mg.

Q: What about the kcat of the same substance?
A: The kcat was 0.0249 s⁻¹.

Q: And the kcat/Km?
A: Its kcat/Km is 423 M⁻¹ s⁻¹.
